Measured values as given in paper PMC6555819, “Comprehensive study of nuclear receptor DNA binding provides a revised framework for understanding receptor specificity”.

B1: NRC3_random_hg19_219_o1 (dsDNA)
DNA 1: GCTATAGCTCACAACCTCATACCAGGAAGGGCTCAGGCGATTGACAGCGTAGAATGAAGG
DNA 2: CCTTCATTCTACGCTGTCAATCGCCTGAGCCCTTCCTGGTATGAGGTTGTGAGCTATAGC
B2: NRC3_random_hg19_102_o1 (dsDNA)
DNA 1: GCCAGATGAAATGACCAGGCTGTTACCAGGGTCTATGCGATTGACAGCGTAGAATGAAGG
DNA 2: CCTTCATTCTACGCTGTCAATCGCATAGACCCTGGTAACAGCCTGGTCATTTCATCTGGC
B3: NRC3_wobSeed85_DR3_C13A_o1 (dsDNA)
DNA 1: GCCGTCCAAGGTAAGAGAGGTCAGTGAATGCCGAGTGCGATTGACAGCGTAGAATGAAGG
DNA 2: CCTTCATTCTACGCTGTCAATCGCACTCGGCATTCACTGACCTCTCTTACCTTGGACGGC
B4: NRC3_wobSeed85_DR3_G24C_o1 (dsDNA)
DNA 1: GCCGTCCAAGGTCAGAGAGGTCACTGAATGCCGAGTGCGATTGACAGCGTAGAATGAAGG
DNA 2: CCTTCATTCTACGCTGTCAATCGCACTCGGCATTCAGTGACCTCTCTGACCTTGGACGGC
B5: NRC3_random_hg19_9_o1 (dsDNA)
DNA 1: GCAGGACTCCTCGTGAAGAGCAGGTGGGAGCGAGTCGCGATTGACAGCGTAGAATGAAGG
DNA 2: CCTTCATTCTACGCTGTCAATCGCGACTCGCTCCCACCTGCTCTTCACGAGGAGTCCTGC
B6: NRC3_random_hg19_134_o1 (dsDNA)
DNA 1: GCAGCTCCACTTCATGCCAGGCCTGGGCTAGAGGCTGCGATTGACAGCGTAGAATGAAGG
DNA 2: CCTTCATTCTACGCTGTCAATCGCAGCCTCTAGCCCAGGCCTGGCATGAAGTGGAGCTGC
B7: NRC3_wobSeed95_DR3_G22C_o1 (dsDNA)
DNA 1: GCAGAACGAGGGCAATGAGTTCATAGCACGGGTGGCGCGATTGACAGCGTAGAATGAAGG
DNA 2: CCTTCATTCTACGCTGTCAATCGCGCCACCCGTGCTATGAACTCATTGCCCTCGTTCTGC
B8: NRC3_random_hg19_432_o1 (dsDNA)
DNA 1: GCATGTCAATGGTAGTTTGATGGGAATAGTATTGAGGCGATTGACAGCGTAGAATGAAGG
DNA 2: CCTTCATTCTACGCTGTCAATCGCCTCAATACTATTCCCATCAAACTACCATTGACATGC
B9: NRC3_random_hg19_340_o1 (dsDNA)
DNA 1: GCGCCTTGTCCTTCTGCAGCTGCTGGTGCAGCCCAGGCGATTGACAGCGTAGAATGAAGG
DNA 2: CCTTCATTCTACGCTGTCAATCGCCTGGGCTGCACCAGCAGCTGCAGAAGGACAAGGCGC
B10: NRC3_random_hg19_147_o1 (dsDNA)
DNA 1: GCCTCTTGCTCCCTATTGGTCTATTGCACTGCAGAGGCGATTGACAGCGTAGAATGAAGG
DNA 2: CCTTCATTCTACGCTGTCAATCGCCTCTGCAGTGCAATAGACCAATAGGGAGCAAGAGGC
B11: NRC3_random_hg19_344_o1 (dsDNA)
DNA 1: GCCGGAAGAGAATTCTTGCCTGCCCACTGGTAGAATGCGATTGACAGCGTAGAATGAAGG
DNA 2: CCTTCATTCTACGCTGTCAATCGCATTCTACCAGTGGGCAGGCAAGAATTCTCTTCCGGC
B12: NRC3_wobSeed113_DR4_T13C_o1 (dsDNA)
DNA 1: GCATATGTAGGTCAGCTGGGGTCATTCAGACTAGGCGCGATTGACAGCGTAGAATGAAGG
DNA 2: CCTTCATTCTACGCTGTCAATCGCGCCTAGTCTGAATGACCCCAGCTGACCTACATATGC
B13: NRC3_random_hg19_237_o1 (dsDNA)
DNA 1: GCTGCAGAGAGGCCACCAGCCAGCCCAGACCCATGCGCGATTGACAGCGTAGAATGAAGG
DNA 2: CCTTCATTCTACGCTGTCAATCGCGCATGGGTCTGGGCTGGCTGGTGGCCTCTCTGCAGC
B14: NRC3_wobSeed84_DR3_T8G_o1 (dsDNA)
DNA 1: GCCCGACGGGGGCAGAAAGGTTACCATACCATCCGGGCGATTGACAGCGTAGAATGAAGG
DNA 2: CCTTCATTCTACGCTGTCAATCGCCCGGATGGTATGGTAACCTTTCTGCCCCCGTCGGGC
B15: NRC3_wobSeed137_DR5_C19G_o1 (dsDNA)
DNA 1: GCATATGTAGGTTACATCGGGGTCATTCAGGCTATGGCGATTGACAGCGTAGAATGAAGG
DNA 2: CCTTCATTCTACGCTGTCAATCGCCATAGCCTGAATGACCCCGATGTAACCTACATATGC
B16: NRC3_wobSeed137_DR5_C18G_o1 (dsDNA)
DNA 1: GCATATGTAGGTTACATGCGGGTCATTCAGGCTATGGCGATTGACAGCGTAGAATGAAGG
DNA 2: CCTTCATTCTACGCTGTCAATCGCCATAGCCTGAATGACCCGCATGTAACCTACATATGC
B17: NRC3_wobSeed121_DR5_A19G_o1 (dsDNA)
DNA 1: GCCAAACTAGGTCACCGGGAGGTCAAAGTCCGCATGGCGATTGACAGCGTAGAATGAAGG
DNA 2: CCTTCATTCTACGCTGTCAATCGCCATGCGGACTTTGACCTCCCGGTGACCTAGTTTGGC
B18: NRC3_wobSeed120_DR4_T13C_o1 (dsDNA)
DNA 1: GCCCGAGTAGGTCACGAGGGGGCATTCAGTGCGAATGCGATTGACAGCGTAGAATGAAGG
DNA 2: CCTTCATTCTACGCTGTCAATCGCATTCGCACTGAATGCCCCCTCGTGACCTACTCGGGC
B19: NRC3_random_hg19_401_o1 (dsDNA)
DNA 1: GCTCTCCATCTTGAGTACCAGCCCTGTTCTTCCAGTGCGATTGACAGCGTAGAATGAAGG
DNA 2: CCTTCATTCTACGCTGTCAATCGCACTGGAAGAACAGGGCTGGTACTCAAGATGGAGAGC
B20: NRC3_wobSeed109_DR4_G21T_o1 (dsDNA)
DNA 1: GCCGTCCAAGGTCATAGGAGTTCAGTGAAGACAGATGCGATTGACAGCGTAGAATGAAGG
DNA 2: CCTTCATTCTACGCTGTCAATCGCATCTGTCTTCACTGAACTCCTATGACCTTGGACGGC
B21: NRC3_wobSeed109_DR4_G17C_o1 (dsDNA)
DNA 1: GCCGTCCAAGGTCATACGAGGTCAGTGAAGACAGATGCGATTGACAGCGTAGAATGAAGG
DNA 2: CCTTCATTCTACGCTGTCAATCGCATCTGTCTTCACTGACCTCGTATGACCTTGGACGGC
B22: NRC3_wobSeed37_DR1_A8G_o1 (dsDNA)
DNA 1: GCCGTCCGAGGTCAAAGGTCAGTGAAGAGATGACGGGCGATTGACAGCGTAGAATGAAGG
DNA 2: CCTTCATTCTACGCTGTCAATCGCCCGTCATCTCTTCACTGACCTTTGACCTCGGACGGC
B23: NRC3_wobSeed89_DR3_G19A_o1 (dsDNA)
DNA 1: GCCTATGTAGGTTAAGGGAGTCATTCAGTTTGAAAGGCGATTGACAGCGTAGAATGAAGG
DNA 2: CCTTCATTCTACGCTGTCAATCGCCTTTCAAACTGAATGACTCCCTTAACCTACATAGGC
B24: NRC3_wobSeed89_DR3_G16C_o1 (dsDNA)
DNA 1: GCCTATGTAGGTTAACGGGGTCATTCAGTTTGAAAGGCGATTGACAGCGTAGAATGAAGG
DNA 2: CCTTCATTCTACGCTGTCAATCGCCTTTCAAACTGAATGACCCCGTTAACCTACATAGGC
B25: NRC3_random_hg19_464_o1 (dsDNA)
DNA 1: GCAGAACCTCATTGCTTATCGCACAGATGAGATGCGGCGATTGACAGCGTAGAATGAAGG
DNA 2: CCTTCATTCTACGCTGTCAATCGCCGCATCTCATCTGTGCGATAAGCAATGAGGTTCTGC

Columns and labels:
PXR:RXRa = PXR:RXRa (Homo sapiens, UniProt O75469;P19793 full;full); assay: no ligand; PBM; 270 nM : 90 nM RXRa; PBS pH 7.4, 2% milk, 0.02% Triton X-100, 1 mM DTT, BSA, 0.4 mg/ml salmon testes DNA; settings: tags: His kept;His cleaved; copies: 1;1; label: surface-attached array probe
Method in brief: (§1)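 Binding z-scores take random background probes as their reference. They come from custom Agilent 4×180K protein-binding microarrays incubated 1 h with ligand-free nuclear receptor dimers, with antibodies against each partner (one per run) detecting binding. Scanned fluorescence was regression-normalized.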

RARb:RXRa = RARb:RXRa (Homo sapiens, UniProt P10826;P19793 full;full); assay: as above; settings: tags: His kept;His cleaved; copies: 1;1; label: surface-attached array probe
Method in brief: as §1

RARg:RXRa = RARg:RXRa (Homo sapiens, UniProt P13631;P19793 full;full); assay: as above; settings: tags: His kept;His cleaved; copies: 1;1; label: surface-attached array probe
Method in brief: as §1

RXRa = RXRa (Homo sapiens, UniProt P19793); assay: no ligand; PBM; 180 nM; PBS pH 7.4, 2% milk, 0.02% Triton X-100, 1 mM DTT, BSA, 0.4 mg/ml salmon testes DNA; settings: tags: His cleaved; chain copies: 2; label: surface-attached array probe
VDR:RXRa = VDR:RXRa (Homo sapiens, UniProt P11473;P19793 full;full); assay: no ligand; PBM; 270 nM : 90 nM RXRa; PBS pH 7.4, 2% milk, 0.02% Triton X-100, 1 mM DTT, BSA, 0.4 mg/ml salmon testes DNA; settings: tags: His kept;His cleaved; copies: 1;1; label: surface-attached array probe
Method in brief: as §1

FXR:RXRa = FXR:RXRa (Homo sapiens, UniProt Q96RI1;P19793 full;full); assay: as above; settings: tags: His kept;His cleaved; copies: 1;1; label: surface-attached array probe
Method in brief: as §1

PPARa:RXRa = PPARa:RXRa (Homo sapiens, UniProt Q07869;P19793 full;full); assay: as above; settings: tags: GST kept;His cleaved; copies: 1;1; label: surface-attached array probe
Method in brief: as §1

PXR:RXRa, sequence (O75469 whole entry, chain 1 of 2): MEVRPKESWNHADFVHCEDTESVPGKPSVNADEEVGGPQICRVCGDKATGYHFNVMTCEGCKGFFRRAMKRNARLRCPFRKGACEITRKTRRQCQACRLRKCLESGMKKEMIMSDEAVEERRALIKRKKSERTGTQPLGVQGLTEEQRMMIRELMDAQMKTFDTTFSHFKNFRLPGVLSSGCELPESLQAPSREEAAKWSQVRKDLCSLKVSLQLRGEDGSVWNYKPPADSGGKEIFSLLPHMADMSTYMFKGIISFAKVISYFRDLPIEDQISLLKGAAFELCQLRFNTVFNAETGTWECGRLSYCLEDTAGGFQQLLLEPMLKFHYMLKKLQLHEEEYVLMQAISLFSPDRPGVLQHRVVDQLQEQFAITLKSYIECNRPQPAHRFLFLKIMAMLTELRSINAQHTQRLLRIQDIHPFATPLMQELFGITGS
PXR:RXRa, sequence (P19793 whole entry, chain 2 of 2): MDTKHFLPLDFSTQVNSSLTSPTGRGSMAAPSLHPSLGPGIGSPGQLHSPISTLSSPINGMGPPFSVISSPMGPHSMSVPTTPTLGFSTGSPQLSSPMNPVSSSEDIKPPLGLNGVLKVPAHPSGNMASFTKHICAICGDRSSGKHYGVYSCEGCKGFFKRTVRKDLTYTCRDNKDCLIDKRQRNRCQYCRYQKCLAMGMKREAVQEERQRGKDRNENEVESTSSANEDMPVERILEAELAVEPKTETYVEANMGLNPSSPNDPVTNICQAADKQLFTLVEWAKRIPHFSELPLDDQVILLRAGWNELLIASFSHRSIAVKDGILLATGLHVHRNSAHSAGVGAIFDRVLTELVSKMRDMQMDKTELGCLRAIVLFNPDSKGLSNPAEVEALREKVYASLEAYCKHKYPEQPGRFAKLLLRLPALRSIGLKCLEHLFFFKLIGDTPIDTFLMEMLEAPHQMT
RARb:RXRa, sequence (P10826 whole entry, chain 1 of 2): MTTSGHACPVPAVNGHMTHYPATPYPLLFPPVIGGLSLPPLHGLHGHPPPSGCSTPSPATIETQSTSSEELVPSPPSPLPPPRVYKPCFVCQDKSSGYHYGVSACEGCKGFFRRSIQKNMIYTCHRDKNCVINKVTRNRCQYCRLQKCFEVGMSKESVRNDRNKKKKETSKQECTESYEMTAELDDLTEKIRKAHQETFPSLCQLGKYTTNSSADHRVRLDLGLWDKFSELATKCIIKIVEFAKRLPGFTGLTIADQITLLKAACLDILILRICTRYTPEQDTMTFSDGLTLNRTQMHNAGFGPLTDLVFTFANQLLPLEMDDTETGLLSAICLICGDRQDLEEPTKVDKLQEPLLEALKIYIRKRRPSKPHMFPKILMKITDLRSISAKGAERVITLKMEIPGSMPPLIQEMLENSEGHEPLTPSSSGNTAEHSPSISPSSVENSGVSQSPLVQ
RARb:RXRa, sequence (P19793 whole entry, chain 2 of 2): as the sequence (P19793 whole entry, chain 2 of 2) above
RARg:RXRa, sequence (P13631 whole entry, chain 1 of 2): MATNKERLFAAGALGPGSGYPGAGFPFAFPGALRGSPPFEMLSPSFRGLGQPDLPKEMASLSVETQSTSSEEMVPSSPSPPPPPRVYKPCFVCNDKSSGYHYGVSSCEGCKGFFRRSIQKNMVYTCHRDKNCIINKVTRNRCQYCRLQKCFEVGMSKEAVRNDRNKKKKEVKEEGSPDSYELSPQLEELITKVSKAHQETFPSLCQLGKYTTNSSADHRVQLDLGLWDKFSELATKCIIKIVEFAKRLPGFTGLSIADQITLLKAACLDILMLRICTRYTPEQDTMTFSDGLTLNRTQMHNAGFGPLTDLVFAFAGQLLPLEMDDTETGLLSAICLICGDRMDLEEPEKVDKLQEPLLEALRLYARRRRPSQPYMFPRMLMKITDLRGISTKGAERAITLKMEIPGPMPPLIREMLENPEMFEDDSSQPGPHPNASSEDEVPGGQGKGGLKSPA
RARg:RXRa, sequence (P19793 whole entry, chain 2 of 2): as the sequence (P19793 whole entry, chain 2 of 2) above
VDR:RXRa, sequence (P11473 whole entry, chain 1 of 2): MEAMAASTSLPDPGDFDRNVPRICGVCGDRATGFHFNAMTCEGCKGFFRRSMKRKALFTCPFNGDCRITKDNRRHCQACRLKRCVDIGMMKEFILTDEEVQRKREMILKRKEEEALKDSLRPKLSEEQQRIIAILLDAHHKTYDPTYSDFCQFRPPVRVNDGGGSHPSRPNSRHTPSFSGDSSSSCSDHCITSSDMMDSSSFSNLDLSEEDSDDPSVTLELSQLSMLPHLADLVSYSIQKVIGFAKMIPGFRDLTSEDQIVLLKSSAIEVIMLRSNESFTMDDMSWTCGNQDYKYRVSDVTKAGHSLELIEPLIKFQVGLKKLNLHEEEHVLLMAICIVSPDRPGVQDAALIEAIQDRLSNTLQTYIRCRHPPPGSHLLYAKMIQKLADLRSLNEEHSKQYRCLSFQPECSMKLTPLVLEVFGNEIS
VDR:RXRa, sequence (P19793 whole entry, chain 2 of 2): as the sequence (P19793 whole entry, chain 2 of 2) above
RXRa, sequence (P19793 whole entry): as the sequence (P19793 whole entry, chain 2 of 2) above
FXR:RXRa, sequence (Q96RI1 whole entry, chain 1 of 2): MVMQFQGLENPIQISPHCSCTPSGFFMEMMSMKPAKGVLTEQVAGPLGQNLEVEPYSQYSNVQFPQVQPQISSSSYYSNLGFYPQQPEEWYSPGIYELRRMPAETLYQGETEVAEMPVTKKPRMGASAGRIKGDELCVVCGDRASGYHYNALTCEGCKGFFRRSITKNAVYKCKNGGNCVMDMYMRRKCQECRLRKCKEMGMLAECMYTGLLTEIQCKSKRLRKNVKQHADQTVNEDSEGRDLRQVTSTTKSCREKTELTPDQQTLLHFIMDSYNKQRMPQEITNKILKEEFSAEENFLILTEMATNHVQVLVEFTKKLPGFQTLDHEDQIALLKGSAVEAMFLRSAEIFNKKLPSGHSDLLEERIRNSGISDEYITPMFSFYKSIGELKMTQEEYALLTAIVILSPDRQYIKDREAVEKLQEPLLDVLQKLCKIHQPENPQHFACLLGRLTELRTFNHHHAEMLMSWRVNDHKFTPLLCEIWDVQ
FXR:RXRa, sequence (P19793 whole entry, chain 2 of 2): as the sequence (P19793 whole entry, chain 2 of 2) above
PPARa:RXRa, sequence (Q07869 whole entry, chain 1 of 2): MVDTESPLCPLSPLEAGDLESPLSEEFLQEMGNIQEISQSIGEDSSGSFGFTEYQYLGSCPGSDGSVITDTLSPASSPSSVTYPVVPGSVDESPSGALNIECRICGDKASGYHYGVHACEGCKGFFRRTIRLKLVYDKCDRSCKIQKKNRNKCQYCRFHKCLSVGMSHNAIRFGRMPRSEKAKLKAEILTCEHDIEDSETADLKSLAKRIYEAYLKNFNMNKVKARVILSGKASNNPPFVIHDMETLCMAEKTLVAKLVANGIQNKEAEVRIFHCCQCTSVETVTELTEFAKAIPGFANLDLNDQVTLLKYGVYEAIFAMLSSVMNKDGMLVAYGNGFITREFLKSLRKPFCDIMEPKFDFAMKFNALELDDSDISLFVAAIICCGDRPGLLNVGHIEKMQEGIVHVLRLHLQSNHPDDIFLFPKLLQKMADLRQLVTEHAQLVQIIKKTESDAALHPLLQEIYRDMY
PPARa:RXRa, sequence (P19793 whole entry, chain 2 of 2): as the sequence (P19793 whole entry, chain 2 of 2) above

| Binder | binding signal (PXR:RXRa) | binding signal (VDR:RXRa) | also measured |
| --- | --- | --- | --- |
| B1 | -0.27 PBM z-score against 500 random probes | – | binding signal (RARb:RXRa): -0.28 PBM z-score against 500 random probes |
| B2 | -0.16 PBM z-score against 500 random probes | – | binding signal (RARg:RXRa): 0.17 PBM z-score against 500 random probes; binding signal (RXRa): 0.48 PBM z-score against 500 random probes |
| B3 | 3.25 PBM z-score against 500 random probes | – | binding signal (RARb:RXRa): 3.07 PBM z-score against 500 random probes |
| B4 | 6.76 PBM z-score against 500 random probes | 7.9 PBM z-score against 500 random probes | – |
| B5 | -0.76 PBM z-score against 500 random probes | – | binding signal (RARg:RXRa): -0.88 PBM z-score against 500 random probes |
| B6 | -0.78 PBM z-score against 500 random probes | – | binding signal (FXR:RXRa): -0.54 PBM z-score against 500 random probes |
| B7 | 7.08 PBM z-score against 500 random probes | 8.01 PBM z-score against 500 random probes | – |
| B8 | -0.12 PBM z-score against 500 random probes | – | binding signal (RXRa): 0.02 PBM z-score against 500 random probes |
| B9 | -0.91 PBM z-score against 500 random probes | – | binding signal (RARg:RXRa): -0.68 PBM z-score against 500 random probes |
| B10 | 0.25 PBM z-score against 500 random probes | – | binding signal (PPARa:RXRa): 0.48 PBM z-score against 500 random probes |
| B11 | -0.71 PBM z-score against 500 random probes | – | binding signal (RXRa): -0.83 PBM z-score against 500 random probes |
| B12 | 7.5 PBM z-score against 500 random probes | 7.24 PBM z-score against 500 random probes | – |
| B13 | -0.57 PBM z-score against 500 random probes | – | binding signal (RXRa): 0.12 PBM z-score against 500 random probes |
| B14 | 3.49 PBM z-score against 500 random probes | – | binding signal (RARb:RXRa): 3.11 PBM z-score against 500 random probes |
| B15 | 6.55 PBM z-score against 500 random probes | 6.54 PBM z-score against 500 random probes | – |
| B16 | 3.01 PBM z-score against 500 random probes | – | binding signal (RARg:RXRa): 3.89 PBM z-score against 500 random probes |
| B17 | 6.61 PBM z-score against 500 random probes | 6.81 PBM z-score against 500 random probes | – |
| B18 | 6.39 PBM z-score against 500 random probes | 7.01 PBM z-score against 500 random probes | – |
| B19 | 0.41 PBM z-score against 500 random probes | – | binding signal (RARg:RXRa): -0.32 PBM z-score against 500 random probes |
| B20 | 7.41 PBM z-score against 500 random probes | 7.28 PBM z-score against 500 random probes | – |
| B21 | 7.4 PBM z-score against 500 random probes | 7.31 PBM z-score against 500 random probes | – |
| B22 | 7.4 PBM z-score against 500 random probes | 7.2 PBM z-score against 500 random probes | – |
| B23 | 0.45 PBM z-score against 500 random probes | – | binding signal (FXR:RXRa): 0.48 PBM z-score against 500 random probes; binding signal (RARg:RXRa): 0.49 PBM z-score against 500 random probes |
| B24 | 6.67 PBM z-score against 500 random probes | 8.07 PBM z-score against 500 random probes | – |
| B25 | -0.05 PBM z-score against 500 random probes | – | binding signal (PPARa:RXRa): -0.25 PBM z-score against 500 random probes; binding signal (RXRa): 0.3 PBM z-score against 500 random probes |
